Data set [1] relates to laser-induced mouse model of CNV. Kind of data set: Laser-induced mouse model of choroidal neovascularisation (CNV). The format is in vivo, C57BL/6J mice. To be noted: day 7, topical drops to both eyes twice daily, bevacizumab 250 μg/mL. As for the experimental part: FIG. 7: Anti-angiogenic efficacy of Bevacizumab with and without 3OC12-HSL (agent) in a laser-induced mouse model of CNV.in a mouse model of choroidal neovascularisation. C57BL/6J mice (n=6 per group) were subjected to laser photocoagulation (Merilas, 532α, 450 mW, 130 ms, 75 μm, 4 lesions per eye) on day 0. Post lasering animals received twice daily topical drops to both eyes10 μL of bevacizumab (250 μg/mL) with/without 3OC12-HSL and control vehicle only) for a total of 14 days. FFA was performed on days 7 and 14 and lesion area measured using Fiji software, n=lesions (mice). All data and graphs were calculated with Fiji and GraphPad Prism v8 and statistical analysis using an t-test, with Welch's correction, * p=<0.05, ** p=<0.01. Data bars represent mean±SEM. Scale bar 200 μm.
Six to eight week-old female C57BL/6J mice (16-20 g, Charles River, UK) were anaesthetized with an intraperitoneal (i.p.) injection of 50 mg/kg ketamine hydrochloride (Ketaset®, 100 mg/mL) and 0.5 mg/kg medetomidine hydrochloride (Sedastart®, 1 mg/mL). The pupils were dilated with a drop of 5% phenylephrine hydrochloride and 0.8% tropicamide to each eye. […] Fundus angiograms were imported into Fiji software and lesions were traced by a masked observer and lesion area was quantified over treatment time and compared between treatment groups. […]

The test system of a further data set is ex-vivo rat eyes. As for the experimental part: In order to investigate the efficacy of 3OC12-HSL as drug delivery enhancer in intact tissue, bevacizumab (250 μg/mL: […]) and aflibercept (40 mg/mL: 348 μM) were applied with and without 3OC12-HSL to ex-vivo rat eyes, and the distribution of drugs was visualised within sagittal ocular cryosections by confocal microscopy. A further set of experiments tested efficacy of 3OC12-HSL via ex vivo porcine skin.
Six hooded rats with pigmented eyes, weighing 280-300 g and aged 7-8 weeks were provided by Bio-Support Unit at the Queen's Medical Centre, Nottingham. Experiments were designed to be performed ex-vivo, immediately post-sacrifice, during experiments supporting other studies. Tested therapies (bevacizumab (250 μg/mL), aflibercept (250 μg/mL) with/without 3OC12-HSL (200 μM) were immediately applied post-sacrifice in (50 μL) to the corneal surface of each animal for a period of 1 hour, before being washed off using ice-cold PBS. The eyeballs were enucleated, immersed in OCT, and flash-frozen in isopentane cooled by liquid N2 before being stored at −80° C. for further processing.
OCT-embedded eyes were cut into 15 μm tissue sections using a cryostat (Leica 3050) and mounted on gelatin-coated slides, at cutting temperatures between −15 and −23° C. […]

Take “Bevacizumab: recombinant humanized monoclonal IgG1 antibody which binds to human VEGF (MW 149 kDa)”: the penetration through skin in the data set on ex vivo porcine skin came out at 5 mm. Further, the average lesion area in data set [1] is 2.86±0.47×10^4. Also, the “fluorescence in eye sections (CLSM)” value in the data set on ex-vivo rat eyes was “No fluorescence was detected”.
